Assay results published in patent US20220218639A1.

Target: fibrin (Homo sapiens (Human)) (UniProt P02671)

percent clot digestion (clot weight before and after 2 hours of incubation, in serum, background-corrected): 7.17%
Substance: δ-plasmin (enzyme)
